Laboratory results published in paper PMC7984168, “Heat Shock Protein HSP24 Is Involved in the BABA-Induced Resistance to Fungal Pathogen in Postharvest Grapes Underlying an NPR1-Dependent Manner”.

B1: PR1 promoter HSE probe (dsDNA)
DNA 1: GGCCCGCATGAGTTACAACAAGAAGAAATTTCAAATATTGCTCTCCGTGG
DNA 2: CCACGGAGAGCAATATTTGAAATTTCTTCTTGTTGTAACTCATGCGGGCC
B2: PR2 promoter HSE probe (dsDNA)
DNA 1: CATCTCAATATCAATATTTAAGAACTTTCTAATAAAATCATCCTTATCCGG
DNA 2: CCGGATAAGGATGATTTTATTAGAAAGTTCTTAAATATTGATATTGAGATG
B3: PR5 promoter HSE probe (dsDNA)
DNA 1: GGAACTGATTCCCTAAAACAGAAAAGAATGTATGAACCTTCCTAAAATAC
DNA 2: GTATTTTAGGAAGGTTCATACATTCTTTTCTGTTTTAGGGAATCAGTTCC

Biological target: VvHSP24 (class B HSP/HSF, AtHSFB1 ortholog) (Vitis vinifera, UniProt A0ACM8QKQ1 1-286)
Assay: EMSA; LightShift chemiluminescent EMSA kit (Pierce); buffer, salt, pH and temperature not stated; 200-fold mutant competitor
Conditions: protein: recombinant; tags: His (pCzn1); label: 5' biotin

Sequence of VvHSP24 (class B HSP/HSF, AtHSFB1 ortholog) (A0ACM8QKQ1 entry or part of it): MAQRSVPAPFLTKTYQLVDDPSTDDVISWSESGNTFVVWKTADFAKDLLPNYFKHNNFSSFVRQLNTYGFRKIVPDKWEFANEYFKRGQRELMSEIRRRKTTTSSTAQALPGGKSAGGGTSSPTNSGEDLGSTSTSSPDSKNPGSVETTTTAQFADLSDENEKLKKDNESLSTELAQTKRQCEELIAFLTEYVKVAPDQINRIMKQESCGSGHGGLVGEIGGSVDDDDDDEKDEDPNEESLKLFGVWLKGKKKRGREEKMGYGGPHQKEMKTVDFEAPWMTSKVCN

Binding result, no binding:
B1
B2
B3
